# Reference: patent publication US20070141048A1 (SYMPHOGEN A S, published 2007)
# Changes are numbered by the printed parent chain.
# T1: Ovalbumin (UniProt P01012 2-386)
# T1 sequence: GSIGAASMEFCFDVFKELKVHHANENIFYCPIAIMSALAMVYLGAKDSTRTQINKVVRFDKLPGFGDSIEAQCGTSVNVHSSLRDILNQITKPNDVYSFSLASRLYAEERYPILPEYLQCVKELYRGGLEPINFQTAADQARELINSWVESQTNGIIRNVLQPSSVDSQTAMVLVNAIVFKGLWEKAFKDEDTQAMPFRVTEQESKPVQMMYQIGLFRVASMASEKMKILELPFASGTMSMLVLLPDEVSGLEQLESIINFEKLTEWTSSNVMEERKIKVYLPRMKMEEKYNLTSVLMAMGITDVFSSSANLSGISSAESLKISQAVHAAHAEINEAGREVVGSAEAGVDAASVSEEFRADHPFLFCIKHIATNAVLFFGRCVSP
# B1: g060b10 (Fab, V domains shown)
# VH: KVQLVESGAEVKKPGATVRVSCKASGYRFNDYCISWVRQAPGQGLEWMGWINGNNADTFYAPKLQGRVTMSTDTSTSTAYMELRNLRSDDTAVYFCARDRGRITLFGEVILRAGWFDSWGQGTLVTVS
# VL: EIVMTQSPSSLSASVGDRVTITCQASQDISKYLNWYQQKPGRAPKLLIYEASNLETGVPPRFSGSGSGTHFTFTITGLQPEDIATYYCQQCDSLPPVFGQGTKLEVK
# B2: g060b06 (Fab, V domains shown)
# VH: QVQLQESGGGVVQPGTSLRLSCVVSGFTFRTYGMNWVRQAPGKVLEWLAFVSSDGSDEFYADSVKGRFTVSRDNSKSTLFLKMNSLRADDTAVYYCARDRGAQITLFGAPLIRPSSFDSWGQGTLVTVS
# VL: EIVLTQSPSSLSASVGDRITITCQASQDITNYLNWYQQKPGKAPKLLIYDASNLQPGVPSRFSGSRSGTDFTFTISSLRPEDIATYYCQQYDGPVLTFGGGTKVEIK
# B3: g060a04 (Fab, V domains shown)
# VH: B2 VH with Q1K, Q5V, V44G, V51L, A88P
# VL: B2 VL with E1D, I2V, L4M, I19V, R66G, G68V
# B4: g060h11 (Fab, V domains shown)
# VH: QVTLKESGPTVVKPTQTLTLTCSLSGFALGTTGVAVGWIRQPPGKALEWLGLIDWNDDRRYRPSLKTRLTITQDMSRNQVVLRLTNLDPLDTGTYFCARSVVPATRAFDFWGQGTLVTVS
# VL: DIQMTQSSSTLSASVGDRVTITCRASQNINIWLAWYQQKAGKAPKLLIYKASTLERGVPSRFSGSGSGTEFTLTITGLRPDDFGSYYCQHYDGNSLTFGQGTRVDIQ
# Biological target: T1, Ovalbumin
# Test: ELISA, periplasmic extract on coated Ovalbumin
row,Binder,binding result
1,B1,no binding (tested: 10 µg/ml Ovalbumin coat)
2,B2,no binding (tested: 10 µg/ml Ovalbumin coat)
3,B3,no binding (tested: 10 µg/ml Ovalbumin coat)
4,B4,no binding (tested: 10 µg/ml Ovalbumin coat)
